T1: HLA-DP DPB1*0401 (human)
T1 chain 1: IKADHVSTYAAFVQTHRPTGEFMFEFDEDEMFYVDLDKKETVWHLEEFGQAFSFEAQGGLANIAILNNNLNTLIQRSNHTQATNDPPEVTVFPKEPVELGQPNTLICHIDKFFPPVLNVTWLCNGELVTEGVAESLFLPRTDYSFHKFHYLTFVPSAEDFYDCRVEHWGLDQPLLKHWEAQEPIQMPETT
T1 chain 2: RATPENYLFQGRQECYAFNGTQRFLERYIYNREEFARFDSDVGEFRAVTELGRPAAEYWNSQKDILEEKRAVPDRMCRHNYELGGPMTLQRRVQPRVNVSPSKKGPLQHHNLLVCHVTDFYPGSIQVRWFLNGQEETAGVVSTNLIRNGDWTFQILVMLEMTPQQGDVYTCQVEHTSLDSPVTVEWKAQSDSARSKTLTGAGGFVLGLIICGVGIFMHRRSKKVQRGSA

Usually IC50 stands for the concentration that inhibits the measured activity by half. Low values mean higher potency, high ones lower potency.

One assay deals with T1, HLA-DP DPB1*0401. As to the kind of experiment: inhibition of radiolabeled peptide binding to purified HLA-DP.
DIYNYMEPYVSKVDP [Dac g 4 peptide 1-15 DIYNYMEPYVSKVDP (Peptide ID 3324.0663)] showed an IC50 of 23400 nM.

For the molecule EKALWIIFSQNMNIK [Cup s 1 peptide 86-100 EKALWIIFSQNMNIK (Peptide ID 3324.0615)], the IC50 is 1540 nM.

As for KALWIIFSQNMNIKL [Cup a 1 peptide 66-80 KALWIIFSQNMNIKL (Peptide ID 3324.0604)], the IC50 is 1730 nM.

With PARLFKAFVLDSDNL [Que a 1 peptide 16-30 PARLFKAFVLDSDNL (Peptide ID 3324.1585)], the IC50 was 52 nM.

Take RYANPIAFFRKEPLK [Lol p 11 peptide 111-125 RYANPIAFFRKEPLK (Peptide ID 3324.1138)]: the IC50 was 2060 nM.

ASVIPPARLFKAFVL [Que a 1 peptide 11-25 ASVIPPARLFKAFVL (Peptide ID 3324.1587)] returned a half-inhibitory concentration (IC50) of 917 nM.

The target of another assay is HLA-DQ molecule DQB1*0202 (human). As to the kind of experiment: inhibition of radiolabeled peptide binding to purified HLA-DQ.
For the molecule EDTNIYNSNEAFKVE [Cup a 1 (316-330) peptide EDTNIYNSNEAFKVE], the IC50 is 7540 nM.

On to KAFVLDSDNLIPKVV [Que a 1 (21-35) peptide KAFVLDSDNLIPKVV], for which the IC50 turned out to be 194 nM.

The molecule NMNIKLKMPLYVAGH [Cup s 1 (96-110) peptide NMNIKLKMPLYVAGH] showed an IC50 of 50000 nM.

Molecule GSDEKNLALSIKYNK [Dac g 2 (11-25) peptide GSDEKNLALSIKYNK] displayed an IC50 of 7200 nM.

As for PARLFKAFVLDSDNL [Que a 1 (16-30) peptide PARLFKAFVLDSDNL], the concentration for half-maximal inhibition (IC50) came out at 310 nM.

Molecule ASEVFKAVEAYLVAH [Que a 1 (141-155) peptide ASEVFKAVEAYLVAH] registered an IC50 of 953 nM.

As for EKALWIIFSQNMNIK [Cup s 1 (86-100) peptide EKALWIIFSQNMNIK], the IC50 worked out at 5560 nM.

The target in the next assay is HLA-DQ molecule DQB1*0602 (human). Described as above.
The molecule EDTNIYNSNEAFKVE [Cup a 1 (316-330) peptide EDTNIYNSNEAFKVE] had an IC50 of 8290 nM.

NMNIKLKMPLYVAGH [Cup s 1 (96-110) peptide NMNIKLKMPLYVAGH] returned an IC50 of 14500 nM.

Take GSDEKNLALSIKYNK [Dac g 2 (11-25) peptide GSDEKNLALSIKYNK]: the IC50 amounted to 130 nM.

For PARLFKAFVLDSDNL [Que a 1 (16-30) peptide PARLFKAFVLDSDNL], the IC50 was 2600 nM.

For the molecule IVYIKPAKNIYSFNE [Bet v 6 (211-225) peptide IVYIKPAKNIYSFNE], the IC50 turned out to be 19 nM.

The next assay addresses HLA-DQ molecule DQB1*0503 (human). The assay is described as above.
In the case of KALWIIFSQNMNIKL [Cup a 1 (66-80) peptide KALWIIFSQNMNIKL], the IC50 is 29000 nM.

Take KAFVLDSDNLIPKVV [Que a 1 (21-35) peptide KAFVLDSDNLIPKVV]: the IC50 came out at 2640 nM.

NMNIKLKMPLYVAGH [Cup s 1 (96-110) peptide NMNIKLKMPLYVAGH]: the IC50 was determined as 11700 nM.

Consider GSDEKNLALSIKYNK [Dac g 2 (11-25) peptide GSDEKNLALSIKYNK], for which the IC50 was found to be 50000 nM.

PARLFKAFVLDSDNL [Que a 1 (16-30) peptide PARLFKAFVLDSDNL] yielded an IC50 of 161 nM.

In turn, IVYIKPAKNIYSFNE [Bet v 6 (211-225) peptide IVYIKPAKNIYSFNE] showed a half-inhibitory concentration (IC50) of 650 nM.

The molecule ASEVFKAVEAYLVAH [Que a 1 (141-155) peptide ASEVFKAVEAYLVAH] showed an IC50 of 2040 nM.

As to EKALWIIFSQNMNIK [Cup s 1 (86-100) peptide EKALWIIFSQNMNIK], the IC50 was found to be 1930 nM.

The target of another assay is HLA-DQ molecule DQB1*0502 (human). The assay is described as above.
For DIYNYMEPYVSKVDP [Dac g 4 (1-15) peptide DIYNYMEPYVSKVDP], the IC50 turned out to be 2020 nM.

In the case of EDTNIYNSNEAFKVE [Cup a 1 (316-330) peptide EDTNIYNSNEAFKVE], the IC50 worked out at 2420 nM.

The molecule KALWIIFSQNMNIKL [Cup a 1 (66-80) peptide KALWIIFSQNMNIKL] yielded an IC50 of 50000 nM.

As to NMNIKLKMPLYVAGH [Cup s 1 (96-110) peptide NMNIKLKMPLYVAGH], the IC50 amounted to 20800 nM.

In the case of PARLFKAFVLDSDNL [Que a 1 (16-30) peptide PARLFKAFVLDSDNL], the IC50 came out at 7.9 nM.

Regarding IVYIKPAKNIYSFNE [Bet v 6 (211-225) peptide IVYIKPAKNIYSFNE], the IC50 was determined as 5840 nM.

ASEVFKAVEAYLVAH [Que a 1 (141-155) peptide ASEVFKAVEAYLVAH]: the IC50 is 5310 nM.

EKALWIIFSQNMNIK [Cup s 1 (86-100) peptide EKALWIIFSQNMNIK] displayed an IC50 of 13000 nM.

Another assay deals with HLA-DQ molecule DQB1*0202 (human). As to the kind of experiment: inhibition of radiolabeled peptide binding to purified HLA.
LEKISNEIKIVATPD [Bet v 1 peptide 3324.0353 (position 96)]: the IC50 came to 8670 nM.

A further assay has as its target HLA-DQ molecule DQB1*0502 (human). The assay is described as above.
LEKISNEIKIVATPD [Bet v 1 peptide 3324.0353 (position 96)]: the IC50 amounted to 5100 nM.

The target of a further assay is HLA-DQ molecule DQB1*0503 (human). Described as above.
As for LEKISNEIKIVATPD [Bet v 1 peptide 3324.0353 (position 96)], the IC50 is 8890 nM.

In a further assay the target is HLA-DQ molecule DQB1*0602 (human). The assay is described as above.
LEKISNEIKIVATPD [Bet v 1 peptide 3324.0353 (position 96)] registered an IC50 of 19 nM.

A further assay has as its target HLA DQ molecule DQB1*0602 (human). As to the kind of experiment: inhibition of radiolabeled peptide binding to purified HLA class II.
The molecule GAYETYKFIPSLEAA [Pha a 5 peptide, position 201, GAYETYKFIPSLEAA (Peptide ID 3324.1433)] gave an IC50 of 846 nM.

Consider LWEVKSAKPLTGPMN [Lol p 3 peptide, position 51, LWEVKSAKPLTGPMN (Peptide ID 3337.0031)], for which the IC50 was found to be 3950 nM.

In turn, MRNVFDDVVPADFKV [Lol p 2 peptide, position 76, MRNVFDDVVPADFKV (Peptide ID 3337.0030)] registered an IC50 of 39500 nM.

Turning to DGVWEIKSDKPLKGP [Lol p 2 peptide, position 51, DGVWEIKSDKPLKGP (Peptide ID 3324.1139)], the IC50 is 26600 nM.

In another assay the target is HLA DQ molecule DQB1*0202 (human). Described as above.
On to LWEVKSAKPLTGPMN [Lol p 3 peptide, position 51, LWEVKSAKPLTGPMN (Peptide ID 3337.0031)], for which the IC50 was determined as 2440 nM.

DGVWEIKSDKPLKGP [Lol p 2 peptide, position 51, DGVWEIKSDKPLKGP (Peptide ID 3324.1139)] registered a 50% inhibitory concentration (IC50) of 530 nM.

A further assay has as its target HLA DQ molecule DQB1*0503 (human). The description is as above.
Turning to GAYETYKFIPSLEAA [Pha a 5 peptide, position 201, GAYETYKFIPSLEAA (Peptide ID 3324.1433)], the IC50 amounted to 358 nM.

On to MRNVFDDVVPADFKV [Lol p 2 peptide, position 76, MRNVFDDVVPADFKV (Peptide ID 3337.0030)], for which the IC50 was 347 nM.

For the origin of these results see patent publication US20150004189A1 (published 2015).
